Assay results reported in the supplement of paper PMC9170038.

Tested on: MS2 coat protein
Test: apparent KD of MS2 coat protein; designed switch direction (-1 OFF switch, 1 ON switch): 1; higher = weaker reporter binding
How it was run: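 Each step of the titration lasted 0.8–1.5 h at the lowest concentration and 10–20 min at the highest. The protein, SNAP-549-labelled MS2 coat protein, went from 0.7 or 1.5 nM doubling to 3 µM over RNA switches transcribed on Illumina chips by stalled E. coli RNA polymerase. Normalised cluster fluorescence was curve-fitted, and the per-design median over clusters is given as apparent KD.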

[1] = input ligand: microRNA oligo, concentration not stated
[2] = Eterna round: R95, input ligand: microRNA oligo, concentration not stated
[3] = Eterna round: R95, input ligand: FMN 200 uM
[4] = Eterna round: R95, input ligand: none

Row | Sequence | apparent KD of MS2 coat protein (input ligand: FMN 200 uM) [nM] | apparent KD of MS2 coat protein [1] [nM] | apparent KD of MS2 coat protein (input ligand: none) [nM] | apparent KD of MS2 coat protein [2] [nM] | apparent KD of MS2 coat protein [3] [nM] | apparent KD of MS2 coat protein [4] [nM]
1 | GUGGUCAGACAUGAGGAUCACCCAUGUGGAAUAAAUAACGGACAGGAUAUUCAAUAUAGGAUAUAGAAGAAGGGUUGAUUGGUG (Eterna round: R96, puzzle: Same State NG 3) | 143 | 84.5 | 90.9 |  |  | 
2 | GUGGUCAGACAUGAGGAUCACCCAUGUGGAAUAAAUAACGGUGAGGAUAUCGAAUAUAGGAUAUACGAGAAGGCAUGAUUGGUG (Eterna round: R96, puzzle: Same State NG 3) | 165 | 93.3 | 124 |  |  | 
3 | GUGGUCAGACAUGAGGAUCACCCAUGUGGAAUAAAUAACGUACAGGAUAUUCAAUAUAGGAUAUAGAAGAAGGGUAGAUUGGUG (Eterna round: R96, puzzle: Same State NG 3) | 196 | 136 | 195 |  |  | 
4 | GUGGUCAGACAUGAGGAUCACCCAUGUGGAAUAAAUAAGGACUAGGAUAUCGAAUAUAGGAUAUACGAGAAGGAGUGGUUGGUG (Eterna round: R96, puzzle: Same State NG 3) | 81.1 | 53.5 | 67.9 |  |  | 
5 | GUGGUCAGACAUGAGGAUCACCCAUGUGGAAUAAAUAAGGAGAAGGAUAUCGAAUAUAGGAUAUACGAGAAGGUCUGGUUGGUG (Eterna round: R96, puzzle: Same State NG 3) |  | 75.2 |  |  |  | 
6 | GUGGUCAGACAUGAGGAUCACCCAUGUGGAAUAAAUAAGGAGAAGGAUAUCGAAUAUAGGAUAUACGAGAAGGUUUGGUUGGUG (Eterna round: R96, puzzle: Same State NG 3) | 120 | 67.3 | 90.6 |  |  | 
7 | GUGGUCAGACAUGAGGAUCACCCAUGUGGAAUAAAUAAGGAGAAGGAUAUUCAAUAUAGGAUAUAGAAGAAGGUCUGGUUGGUG (Eterna round: R96, puzzle: Same State NG 3) |  | 63.7 |  |  |  | 
8 | GUGGUCAGACAUGAGGAUCACCCAUGUGGAAUAAAUAAGGAGAAGGAUAUUUAAUAUAGGAUAUAAAAGAAGGUCUGGUUGGUG (Eterna round: R96, puzzle: Same State NG 3) | 99.4 | 55.6 | 92.5 |  |  | 
9 | GUGGUCAGACAUGAGGAUCACCCAUGUGGAAUAAAUAAGGAUCAGGAUAUGGAAUAUAGGAUAUACCAGAAGGGAUGGUUGGUG (Eterna round: R96, puzzle: Same State NG 3) | 59.9 | 41.7 | 52.6 |  |  | 
10 | GUGGUCAGACAUGAGGAUCACCCAUGUGGAAUAAAUAAGGCAUAGGAUAUAAAAUAUAGGAUAUAUUAGAAGGAUGGGUUGGUG (Eterna round: R96, puzzle: Same State NG 3) | 145 | 83.7 | 144 |  |  | 
11 | GUGGUCAGACAUGAGGAUCACCCAUGUGGAAUAAAUAAGGGAGAGGAUAUAAAAUAUAGGAUAUAUUAGAAGGCUCGGUUGGUG (Eterna round: R96, puzzle: Same State NG 3) | 95.7 | 82.7 | 85.4 |  |  | 
12 | GUGGUCAGACAUGAGGAUCACCCAUGUGGAAUAAAUAAGGUACAGGAUAUCUAAUAUAGGAUAUAAGAGAAGGGUAGGUUGGUG (Eterna round: R96, puzzle: Same State NG 3) |  | 55.9 |  |  |  | 
13 | GUGGUCAGACAUGAGGAUCACCCAUGUGGAAUAAAUAAGGUCAAGGAUAUGGAAUAUAGGAUAUACCAGAAGGUGAGGUUGGUG (Eterna round: R96, puzzle: Same State NG 3) | 245 | 167 | 225 |  |  | 
14 | GUGGUGAAUUAAGGAUAUCGAGUCUAGAUGUUAAACAUGAGGAUCACCCAUGUGGGUUGCGGUAUCGAGAAGGUAAUUUACGGG [salish99_SSNG2_r04_507] (Eterna round: R96, puzzle: Same State NG 2) | 25.4 | 26.1 | 47.2 |  |  | 
15 | GUGGUGGGUUGAGGAUAUUGGUUGUUGUUGUCCCACAUGAGGAUCACCCAUGUGGGUUGUGGUUUUGAGAAGGUUGGUUGCCGG [salish99_SSNG2_r04_053] (Eterna round: R96, puzzle: Same State NG 2) |  | 15 |  |  |  | 
16 | GUGGUGGGUUGAGGAUAUUGGUUGUUGUUGUUCCACAUGAGGAUCACCCAUGUGGGUUGUGGUUUUGAGAAGGUUGGUUGCUGG [salish99_SSNG2_r04_050] (Eterna round: R96, puzzle: Same State NG 2) | 17.2 | 14.2 | 20.3 |  |  | 
17 | GUGUGUUGCGGGCAGGAUAUGUAUUUGAGUACAUGAGGAUCACCCAUGUGCGCCUGUUUCAGGCGACAGAAGGGCCUAUCGCGAC [JL-ss2-3.27 ViennaUCT mod] (puzzle: Same State 2) |  |  |  | 106 |  | 

Row | Sequence | apparent KD of MS2 coat protein (input ligand: FMN 200 uM) [nM] | apparent KD of MS2 coat protein [1] [nM] | apparent KD of MS2 coat protein (input ligand: none) [nM] | apparent KD of MS2 coat protein [2] [nM] | apparent KD of MS2 coat protein [3] [nM] | apparent KD of MS2 coat protein [4] [nM]
18 | GUGUUACAUGAGGAUCACCCAUGUUGUUUUAGAUAAGGAUAUAUGGUAACGAGAGAAAUAAUAGAAGGUAUUAGGC [JR_SS1_Sub062] (puzzle: Same State 1) |  |  |  | 29.9 |  | 
19 | GUUAAACAUGAGGAUCACCCAUGUAAUAAUAUGGGAGGAUAUCAGAAAGUAUGUAUGAAAUGAGAAGGCCUAAUUG [Mat - Same State 1 - Mod of Eli - D78] (puzzle: Same State 1) |  |  |  | 154 | 57.9 | 124
20 | GUUAAACAUGAGGAUCACCCAUGUAAUAAUAUGGGAGGAUAUCAGAAAUUAUUUAUUAAAUGAGAAGGCCUAAUUG [Mat - Same State 1 - Mod of Eli - D81] (puzzle: Same State 1) |  |  |  | 321 | 53.6 | 150
21 | GUUAAACAUGAGGAUCACCCAUGUCAAUGUAGUCGAGGAUAUGGGCAGCUAUGAGGCGUACUAGAAGGCGAAAAGU [Mat - Same State 1 - Mod of JL - D13] (puzzle: Same State 1) |  |  |  | 260 | 117 | 535
22 | GUUACAUGAGGAUCACCCAUGUAUGUGUGGGAGUAAGUGUCUUAGGAUAUCUAGUAUGUAAUUUAAGAGAAGGAAGAUUGUUGU [JMF's solution 56] (Eterna round: R96, puzzle: Same State NG 3) | 217 | 264 | 261 |  |  | 
23 | GUUACAUGAGGAUCACCCAUGUAUGUGUGGGAGUAAGUGUCUUAGGAUAUCUAGUAUUUAAGUUAAGAGAAGGAAGAUUGUUGU [JMF's solution 62] (Eterna round: R96, puzzle: Same State NG 3) | 129 | 78 | 114 |  |  | 
24 | GUUACAUGAGGAUCACCCAUGUAUGUGUGGGAGUAAGUGUCUUAGGAUAUCUAGUAUUUAAUUUUAGAGAAGGAAGAUUGUUGU [JMF's solution 69] (Eterna round: R96, puzzle: Same State NG 3) | 128 | 121 | 134 |  |  | 
25 | GUUACAUGAGGAUCACCCAUGUAUGUGUGGGAGUAAGUGUCUUAGGAUAUCUAUCAUUUAAUUCAAGAGAAGGAAGAUUGUUGU [JMF's solution 100] (Eterna round: R96, puzzle: Same State NG 3) | 126 | 96.1 | 103 |  |  | 
26 | GUUACAUGAGGAUCACCCAUGUAUGUGUGGGAGUAAGUGUCUUAGGAUAUCUAUGAUUUAAUCUAAGAGAAGGAAGAUUGUUGU [JMF's solution 82] (Eterna round: R96, puzzle: Same State NG 3) | 114 | 76.8 | 95.3 |  |  | 
27 | GUUACAUGAGGAUCACCCAUGUAUGUGUGGGAGUAAGUGUCUUAGGAUAUCUAUUAUUUAAAUUAAGAGAAGGAAGAUUGUUGU [JMF's solution 7] (Eterna round: R96, puzzle: Same State NG 3) |  | 93 |  |  |  | 
28 | GUUACAUGAGGAUCACCCAUGUAUGUGUGGGAGUAAGUGUCUUAGGAUAUCUGUUAUUUAACUUAAGAGAAGGAAGAUUGUUGU [JMF's solution 43] (Eterna round: R96, puzzle: Same State NG 3) | 108 | 65.4 | 105 |  |  | 
29 | UAAACUAGUUAUAGUGUAAUGCAUAUUAUACAUGAGGAUCACCCAUGUGAUGGUUGGUAUGAUUUUGUUCGUCUUAA [JR_SHM208A_Sub079] (puzzle: Sensor for hsa-mir-208a) |  |  |  | 61.9 | 148 | 232
30 | UAAACUUCUUUUAGUGUAAUGCAAGUGAUACAUGAGGAUCACCCAUGUUUUGGAUCGUGUUAUUUUGUUCGUCUUAA [JR_SHM208A_Sub077] (puzzle: Sensor for hsa-mir-208a) |  |  |  | 30.3 | 33.2 | 42.9
31 | UAAACUUCUUUUAGUGUAAUGCAUGUGAUACAUGAGGAUCACCCAUGUUUUGGUUCGUUUUAUUUUGUUCGUCUUAA [JR_SHM208A_Sub078] (puzzle: Sensor for hsa-mir-208a) |  |  |  | 43.9 | 59.3 | 81.8
32 | UAAAGAUAGCGAGGAUAUCGCGAGGAUCACCCGUGAGAAGGCGCAGAGCCGAGGAUCACCCGGCUGAUCCUGAGGAGGAGGUCA (Eterna round: R96, puzzle: Same State NG 1) | 108 | 197 | 249 |  |  | 
33 | UAAAUACAUGAGGAUCACCCAUGUCAAAAGACAUGAGGAUAUGUACAGACUUCGGUCUGUACAGAAGGCAUGAAAA [salish99_ss1_r3_095] (Eterna round: R96, puzzle: Same State 1) |  | 397 |  |  |  | 
